Laboratory results as given in paper PMC10368638, “Differential CaKAN3-CaHSF8 associations underlie distinct immune and heat responses under high temperature and high humidity conditions”.

Molecular target: CaKAN3-GST (Capsicum annuum? (pepper), UniProt A0A2G2Z1N1 1-250)
Assay: EMSA; EMSA: 20 uL; 5x binding buffer printed as 1 M Tris-HCl pH 7.5, 5 M NaCl, 1 M KCl, 1 M MgCl2, 0.5 M EDTA pH 8.0, 10 mg/mL BSA (apparently stock concentrations)
Details: protein: recombinant; tags: GST (pDEST-15); label: Cy5; blunt

CaKAN3-GST, sequence (A0A2G2Z1N1 entry or part of it): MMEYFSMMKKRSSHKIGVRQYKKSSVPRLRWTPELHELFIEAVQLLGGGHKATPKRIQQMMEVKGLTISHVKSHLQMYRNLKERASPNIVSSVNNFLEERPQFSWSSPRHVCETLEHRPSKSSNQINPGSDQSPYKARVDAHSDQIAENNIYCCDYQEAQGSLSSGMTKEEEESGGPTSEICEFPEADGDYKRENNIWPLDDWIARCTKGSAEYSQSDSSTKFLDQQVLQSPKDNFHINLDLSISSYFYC

B1: 3x AACAA probe (dsDNA)
DNA 1: AACAAAACAAAACAA
DNA 2: TTGTTTTGTTTTGTT
binding result: binds

B2: 3x AACAAm probe (3xAAAAA) (dsDNA)
DNA 1: AAAAAAAAAAAAAAA
DNA 2: TTTTTTTTTTTTTTT
binding result: no binding
